# According to article doi:10.1101/2021.06.30.450611:
# Residue numbers refer to the chain shown, from its start. Numbers in names are those of the source.
# B1: full-length recombinant human KIF1C-GFP (wildtype) (natural protein)
# chain: MAGASVKVAVRVRPFNARETSQDAKCVVSMQGNTTSIINPKQSKDAPKSFTFDYSYWSHTSTEDPQFASQQQVYRDIGEEMLLHAFEGYNVCIFAYGQTGAGKSYTMMGRQEPGQQGIVPQLCEDLFSRVSENQSAQLSYSVEVSYMEIYCERVRDLLNPKSRGSLRVREHPILGPYVQDLSKLAVTSYADIADLMDCGNKARTVAATNMNETSSRSHAVFTIVFTQRCHDQLTGLDSEKVSKISLVDLAGSERADSSGARGMRLKEGANINKSLTTLGKVISALADMQSKKRKSDFIPYRDSVLTWLLKENLGGNSRTAMIAALSPADINYEETLSTLRYADRTKQIRCNAIINEDPNARLIRELQEEVARLRELLMAQGLSASALEGLKTEEGSVRGALPAVSSPPAPVSPSSPTTHNGELEPSFSPNTESQIGPEEAMERLQETEKIIAELNETWEEKLRKTEALRMEREALLAEMGVAVREDGGTVGVFSPKKTPHLVNLNEDPLMSECLLYHIKDGVTRVGQVDMDIKLTGQFIREQHCLFRSIPQPDGEVVVTLEPCEGAETYVNGKLVTEPLVLKSGNRIVMGKNHVFRFNHPEQARLERERGVPPPPGPPSEPVDWNFAQKELLEQQGIDIKLEMEKRLQDLENQYRKEKEEADLLLEQQRLYADSDSGDDSDKRSCEESWRLISSLREQLPPTTVQTIVKRCGLPSSGKRRAPRRVYQIPQRRRLQGKDPRWATMADLKMQAVKEICYEVALADFRHGRAEIEALAALKMRELCRTYGKPDGPGDAWRAVARDVWDTVGEEEGGGAGSGGGSEEGARGAEVEDLRAHIDKLTGILQEVKLQNSSKDRELQALRDRMLRMERVIPLAQDHEDENEEGGEVPWAPPEGSEAAEEAAPSDRMPSARPPSPPLSSWERVSRLMEEDPAFRRGRLRWLKQEQLRLQGLQGSGGRGGGLRRPPARFVPPHDCKLRFPFKSNPQHRESWPGMGSGEAPTPLQPPEEVTPHPATPARRPPSPRRSHHPRRNSLDGGGRSRGAGSAQPEPQHFQPKKHNSYPQPPQPYPAQRPPGPRYPPYTTPPRMRRQRSAPDLKESGAAV
# B2: full-length recombinant human KIF1C(P176L)-GFP (natural protein)
# chain: B1 chain with P176L
# B3: full-length recombinant human KIF1C(R169W)-GFP (natural protein)
# chain: B1 chain with R169W
# Target: Taxol-stabilised microtubules assembled from pig tubulin (single molecule motility assay) (pig)
# Test: single molecule TIRF motility assay
row,Binder,dwell time
1,B1,36.3 s
2,B2,25.8 s
3,B3,16 s
